Here are results for two molecules from paper PMC8225418.

Series [1] concerns the target T1, wt Dpo4 (DNA polymerase IV) (Sulfolobus solfataricus, UniProt Q97W02 1-352).
T1 sequence: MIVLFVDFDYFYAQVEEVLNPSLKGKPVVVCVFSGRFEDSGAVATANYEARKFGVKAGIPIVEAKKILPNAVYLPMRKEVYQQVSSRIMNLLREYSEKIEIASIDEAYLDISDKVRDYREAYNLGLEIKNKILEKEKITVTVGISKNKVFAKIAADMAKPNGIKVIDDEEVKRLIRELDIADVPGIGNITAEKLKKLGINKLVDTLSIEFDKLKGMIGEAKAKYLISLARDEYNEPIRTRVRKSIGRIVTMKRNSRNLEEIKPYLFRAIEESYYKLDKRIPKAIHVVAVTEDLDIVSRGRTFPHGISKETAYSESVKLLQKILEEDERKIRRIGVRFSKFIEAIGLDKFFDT
The experiment in a line: stopped-flow fluorescence anisotropy.

Series [2] addresses T1, wt Dpo4 (DNA polymerase IV). In words: stopped-flow FRET.

B1: Alexa488-labeled DNAOH (dsDNA)
DNA 1: CGAGCCGTCGCATCCTACCGC
DNA 2: GATGCTGCAGCGGTAGGATGCGACGGCTCG
modifications: 5-C6-amino-2'-deoxythymidine at T13 of primer (ninth base from 3' end)
On to B1, for which the binding result in series [1] was “binds”.

B2: DNAOH (21-mer/30-mer) (dsDNA)
DNA 1: CGAGCCGTCGCATCCTACCGC
DNA 2: B1 DNA 2
On to B2, for which the binding result in series [2] is given as “binds”.
